Test system: moderate to severe pain from osteoarthritis of the knee
Test: Clinical study, osteoarthritis of the knee: WOMAC 3.1 index
Format: in vivo, human
Settings: day 1 to day 28
Text: Adult males and females (ages between 35 to 65) who were experiencing moderate-to-severe pain from osteoarthritis of the knee, but were in otherwise overall good health were enrolled in the study. During the screening period, patients were required to discontinue arthritis medications such as NSAIDs, cyclooxygenase type-2 (COX-2) inhibitors, and opiates at least 14 days prior to administration of anti-NGF antibody E3. Patients were allowed to use rescue medications of acetaminophen or ibuprofen with some restrictions based on laboratory findings or past medical history. […] Thirty-four patients were admitted to the study and assessed as inpatients for on Study Days -1, 1 and 2. […] The volume for each patient was calculated based on the subject's Day -1 weight and assigned dose level, ranging from 3-6 cc for cohort 1, 10-20 cc for cohort 2, 30-60 cc for cohort 3, and 100 cc for cohort 4 and cohort 5. […] Each domain was scored by determining the means of the VAS scores of the component questions. The total WOMAC 3.1TM was scored by determining the means of the scores from each of the 3 domains. […] Outcome was assessed as change from baseline (pain level during screening period), expressed as pain intensity difference (PID) or summed pain intensity difference (SPID) for different dose levels. […]

B1: E3: humanized, affinity matured anti-NGF antagonist antibody; variable regions SEQ ID NO:1 and 2; human IgG2a (A330P331 to S330S331), kappa (antibody, V domains shown)
VH: QVQLQESGPGLVKPSETLSLTCTVSGFSLIGYDLNWIRQPPGKGLEWIGIIWGDGTTDYNSAVKSRVTISKDTSKNQFSLKLSSVTAADTAVYYCARGGYWYATSYYFDYWGQGTLVTVS
VL: DIQMTQSPSSLSASVGDRVTITCRASQSISNNLNWYQQKPGKAPKLLIYYTSRFHSGVPSRFSGSGSGTDFTFTISSLQPEDIATYYCQQEHTLPYTFGQGTKLEIKRT
modifications: human IgG2a constant (A330S/P331S) and kappa constant missing
- WOMAC pain, physical function and stiffness score (100 μg/kg): reduced significantly
- WOMAC score (single i.v. dose): reduced WOMAC score

— patent US20080182978A1, “ANTI-NGF ANTIBODIES AND METHODS USING SAME” (RINAT NEUROSCIENCE CORP, priority 2002, published 2008)
